US20220185889

Target: CTLA-4 Ig functionalized with GzmB substrate (UniProt P16410)
Sequence (P16410 38-161): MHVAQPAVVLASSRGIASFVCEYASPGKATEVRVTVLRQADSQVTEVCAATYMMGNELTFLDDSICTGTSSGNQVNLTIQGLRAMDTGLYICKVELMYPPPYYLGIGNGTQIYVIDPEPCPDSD

B1: complement component S1 (enzyme, UniProt P09871 16-688, looked up, species assumed)
Complement C1s subcomponent: EPTMYGEILSPNYPQAYPSEVEKSWDIEVPEGYGIHLYFTHLDIELSENCAYDSVQIISGDTEEGRLCGQRSSNNPHSPIVEEFQVPYNKLQVIFKSDFSNEERFTGFAAYYVATDINECTDFVDVPCSHFCNNFIGGYFCSCPPEYFLHDDMKNCGVNCSGDVFTALIGEIASPNYPKPYPENSRCEYQIRLEKGFQVVVTLRREDFDVEAADSAGNCLDSLVFVAGDRQFGPYCGHGFPGPLNIETKSNALDIIFQTDLTGQKKGWKLRYHGDPMPCPKEDTPNSVWEPAKAKYVFRDVVQITCLDGFEVVEGRVGATSFYSTCQSNGKWSNSKLKCQPVDCGIPESIENGKVEDPESTLFGSVIRYTCEEPYYYMENGGGGEYHCAGNGSWVNEVLGPELPKCVPVCGVPREPFEEKQRIIGGSDADIKNFPWQVFFDNPWAGGALINEYWVLTAAHVVEGNREPTMYVGSTSVQTSRLAKSKMLTPEHVFIHPGWKLLEVPEGRTNFDNDIALVRLKDPVKMGPTVSPICLPGTSSDYNLMDGDLGLISGWGRTEKRDRAVRLKAARLPVAPLRKCKEVKVEKPTADAEAYVFTPNMICAGGEKGMDSCKGDSGGAFAVQDPNDKTKFYAAGLVSWGPQCGTYGLYTRVKNYVDWIMKTMQENSTPRED
  in vitro cleavage assay: no cross-cleavage by matrix, complement, or immune proteases
